Measurements reported in paper PMC12876990, “Targeting secreted PLA2 interactions with EGFR and vimentin to arrest prostate tumour growth” (Cell Death & Disease, 2025).
Square brackets hold non-standard residues; d marks the D form. 2Nal = N[C@@H](Cc1ccc2ccccc2c1)C(=O)O

Target: T1, vimentin coil 2 (purified fragment)
T1 construct: vimentin, coil 2 fragment, purified; PDB 3TRT was used only for docking; also called second coil of vimentin; source: purified
Test: ELISA; competition enzyme immunoassay: vimentin coil 2 coated on the plate (15 µg/mL); hGIIA 100 ng/mL in PBS with 0.1% BSA mixed with c2 0.1-100 µM in DMSO, 37 °C, 2 h; detected with 4A1-alkaline phosphatase
Settings: both partners purified

IC50: 56.5 µM
B1: c2 (cyclo-((2-Nal)-Leu-Ser-(2-Nal)-Arg)) (peptide)
chain: cyclo([2Nal]LS[2Nal]R)
SMILES: CC(C)C[C@@H]1NC(=O)[C@H](Cc2ccc3ccccc3c2)NC(=O)[C@H](CCCNC(=N)N)NC(=O)[C@H](Cc2ccc3ccccc3c2)NC(=O)[C@H](CO)NC1=O
